For one series, the target named is T1, human BACE1 ECD (Homo sapiens, UniProt P56817).
T1 construct: human BACE1 ECD or murine BACE1 ECD (amino acids 1-457) was injected in PBT buffer
As to the kind of experiment: BIAcore SPR binding kinetics, human BACE1. The protocol:
The binding kinetics of YW412.8.31 was assessed. Briefly, binding affinities of anti-BACE1 IgGs were measured by surface plasmon resonance (SPR) using a BIAcore™-3000 instrument. YW412.8.31 anti-BACE1 human IgG was captured by mouse anti-human Fc antibody (GE Healthcare, cat# BR-1008-39) coated on CM5 biosensor chips to achieve approximately 100 response units (RU). For kinetics measurements, two-fold serial dilutions (0.98 nM to 125 nM) of human BACE1 ECD or murine BACE1 ECD (amino acids 1-457) was injected in PBT buffer (PBS with 0.05% Tween 20) at 25° C. with a flow rate of 30 μl/min. Association rates (kon) and dissociation rates (koff) were calculated using a simple one-to-one Langmuir binding model (BIAcore™ Evaluation Software version 3.2). The equilibrium dissociation constant (KD) was calculated as the ratio koff/kon.
Background: Surface plasmon resonance follows binding to a sensor surface in real time, without labels.

A further series deals with T2, BACE2 (Homo sapiens, UniProt Q9Y5Z0).
T2 sequence (Q9Y5Z0 63-518): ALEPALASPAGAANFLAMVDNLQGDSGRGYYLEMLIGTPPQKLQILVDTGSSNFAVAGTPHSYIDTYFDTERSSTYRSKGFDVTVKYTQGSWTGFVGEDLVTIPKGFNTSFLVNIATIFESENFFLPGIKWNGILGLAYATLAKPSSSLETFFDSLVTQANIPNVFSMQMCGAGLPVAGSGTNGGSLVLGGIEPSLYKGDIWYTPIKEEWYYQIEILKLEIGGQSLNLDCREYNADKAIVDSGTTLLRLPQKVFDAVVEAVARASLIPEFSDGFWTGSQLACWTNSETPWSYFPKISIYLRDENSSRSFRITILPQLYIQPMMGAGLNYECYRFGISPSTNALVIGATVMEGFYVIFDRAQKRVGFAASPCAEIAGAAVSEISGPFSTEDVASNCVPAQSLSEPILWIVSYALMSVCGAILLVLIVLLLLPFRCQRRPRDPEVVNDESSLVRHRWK
In words: SPR analysis, BACE2. Format: binding. On the procedure: Further characterization of this antibody was performed to better understand its function.

Series [1] has as its system E16.5 cortical neurons and E16.5 hippocampal neurons. As to the kind of experiment: Aβ40 production in cortical and hippocampal neurons. Format: cell-based, mouse. The note with it: 24 hours. On the procedure: Similar studies were also performed in dorsal root ganglia, cortical neurons and hippocampal neurons isolated from mice. Briefly, dissociated neuronal cultures were prepared from E13.5 dorsal root ganglia (DRG), E16.5 cortical neurons and E16.5 hippocampal neurons. Neurons were grown for five days in vitro. Fresh media containing YW412.8.31 anti-BACE antibody or control IgG1 was incubated with the neurons for 24 hours. Media was harvested and assayed for the presence of Aβ40 using the MSD® Rodent/Human (4G8) A1340 Ultrasensitive kit according to the Manufacturer's instructions. Aβ40 values were normalized for cell viability, as determined using the CellTiter-Glo Luminescent Cell Viability Assay (Promega). The experiment was performed at least three times, and each point was repeated in duplicate. Data was plotted using a four-parameter non-linear regression curve-fitting program (Kaleidagraph, Synergy Software).

For series [2], the system named is Aβ1-40 and Aβ1-42 in hAPP transgenic mice. As to the kind of experiment: hAPP transgenic mice, continuous ICV infusion, Aβ levels. Format: in vivo, mouse. Particulars: ICV infusion 7 days. The protocol: Similar experiments were also performed in which YW412.8.31 anti-BACE1 antibody was delivered systemically or directly into hAPP transgenic mice brains by continuous ICV infusion. For ICV delivery, antibody was delivered continuously for 7 days via an Alzet osmotic minipump (model 2001) implanted unilaterally. The amount of YW412.8.31 antibody delivered was 0.041 mg/day (low dose) or 0.41 mg/day (high dose); 0.33 mg/day Control IgG was delivered to the control group. At euthanasia, plasma, cortex, and hippocampus were harvested and analyzed for levels of soluble Aβ1-40 and Aβ1-42 by ELISA (The Genetics Company) following manufacturer's instructions.

In series [3] the test system is Aβ1-40 in wild-type C57Bl/6J mice. In words: Wild-type C57Bl/6J mice, IP dosing, Aβ1-40 levels. Format: in vivo, mouse. On the procedure:
Additional experiments with wild-type C57Bl/6J mice were performed in which 100 mg/kg of YW412.8.31, or a control IgG, was administered systemically. Levels of Aβ1-40 in both the plasma and forebrain of treated animals four hours after a single intraperitoneal (IP) injection were determined. Blood was collected from animals by cardiac puncture to isolate plasma.
Following PBS perfusion, the brain was harvested and forebrain from one hemibrain was prepared in PK buffer (1% NP-40 in PBS, with Roche complete protease inhibitors) whereas forebrain from the other hemibrain was homogenized in 5M GuHCL, 50 mM Tris pH 8.0, and further diluted in Casein Blocking Buffer (0.25% casein/0.05% sodium azide, 20 μg/ml aprotinin/5 mM EDTA, pH 8.0/10 μg/ml leupeptin in PBS) for Aβ1-40 analysis.
Additional experiments were performed in order to determine the effect of elevated brain antibody levels through repeated dosing. YW412.8.31 antibody, or control IgG, was administered at 30 or 100 mg/kg IP every 4 days for a total of 3 doses. In this study the levels of Aβ1-40 in both the plasma and forebrain of treated animals 4 hours post last dose were measured. Again, ˜50% reduction in plasma Aβ1-40 levels following multi-dosing at both 30 and 100 mg/kg was observed (FIG. 22, panel B). […] YW412.8.31 antibody concentrations in serum were 480±210 and 1500±440 μg/mL, and concentrations in brain were 0.9±0.6 μg/g (5.9±4.3 nM) and 3.0±1.6 μg/g (20±10 nM) following administration at 30 and 100 mg/kg given every 4 days, respectively.

Series [4] in a line: Antibody concentration in monkey serum and CSF. Format: in vivo, Cynomolgus monkey. Particulars: 30 mg/kg IV. On the procedure: Cynomolgus monkeys were dosed with control IgG or YW412.8.31 anti-BACE1 antibody (30 mg/kg) by IV delivery. Plasma and CSF were sampled up to 7 days prior to dosing to set mean baseline Aβ1-40 levels in each in individual animal, and then at various times after dosing. Total anti-BACE1 or control antibody concentrations in monkey serum and CSF samples were measured using monkey-adsorbed goat anti-human IgG polyclonal antibody (Bethyl, Montgomery, Tex.) as both coat and detection (FIG. 20). Free anti-BACE1 antibody concentrations in monkeys were determined using BACE1 ECD as coat and the monkey-adsorbed goat anti-human IgG antibody (Bethyl) for detection.

Where “and” joins values, the source holds several entries; their conditions need not be identical. Equal entries are not always repeated. Entries after “also recorded” stand apart in the source; their conditions may differ.

T1 sequence (P56817 22-457): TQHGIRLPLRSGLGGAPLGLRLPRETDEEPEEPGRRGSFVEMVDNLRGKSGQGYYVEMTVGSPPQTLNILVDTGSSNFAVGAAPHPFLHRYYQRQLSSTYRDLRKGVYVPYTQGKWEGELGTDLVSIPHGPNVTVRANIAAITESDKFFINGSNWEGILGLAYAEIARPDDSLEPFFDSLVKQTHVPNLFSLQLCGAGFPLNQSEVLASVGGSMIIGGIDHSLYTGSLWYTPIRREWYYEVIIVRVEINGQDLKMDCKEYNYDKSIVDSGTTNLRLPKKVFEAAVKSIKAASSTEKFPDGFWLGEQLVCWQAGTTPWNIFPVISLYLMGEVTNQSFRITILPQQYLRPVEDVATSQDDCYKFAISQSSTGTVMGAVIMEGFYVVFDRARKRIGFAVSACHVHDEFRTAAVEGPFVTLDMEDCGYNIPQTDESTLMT

B1: YW412.8.31: affinity matured form of YW412.8 anti-BACE1 antibody (antibody, V domains shown)
VH: EVQLVESGGGLVQPGGSLRLSCAASGFTFLGYGIHWVRQAPGKGLEWVGWISPAGGSTDYADSVKGRFTISADTSKNTAYLQMNSLRAEDTAVYYCARGPFSPWVMDYWGQGTLVTVSS
VL: DIQMTQSPSSLSASVGDRVTITCRASQDVSTAVAWYQQKPGKAPKLLIYSASFLYSGVPSRFSGSGSGTDFTLTISSLQPEDFATYYCQQFPTYLPTFGQGTKVEIK
The IC50 is the point on the concentration scale where inhibition reaches its midpoint. Regarding B1, the “Binding to BACE1” value with human BACE1 ECD (at both pH 7.0 and 5.0) is recorded as “confirmed”. The KON with human BACE1 ECD (human BACE1, IgG captured, pH 7.0, 25° C.) is 1.1 × 10^5 M^−1S^−1 and 1.05 × 10^5 M^−1S^−1. Besides, in the series with BACE2, the “binding to BACE2” value is reported as “does not bind”. Also, the IC50 in series [1] was ~2.5 nM. For the same molecule, in series [2], the “Aβ reduction following ICV infusion” value is on record as 15-23%. Also, in series [2] (both doses), the “reduction of Aβ1-40 and Aβ1-42 in cortex” value is given as 15-23%; the “reduction of Aβ1-40 and Aβ1-42 in hippocampus” value is on record as 15-20%. Moreover, the “reduction of forebrain Aβ1-40” value in series [3] (30 mg/kg IP, 3 doses every 4 days) is given as “no reduction; also recorded: not reduced”. For the same molecule, the “reduction of forebrain Aβ1-40” value in series [3] (100 mg/kg IP, 3 doses every 4 days) stood at 42%. Also, in series [3] (100 mg/kg single IP, 4 hours), the “change in forebrain Aβ1-40” value is recorded as “no change; also recorded: not reduced”; the “reduction of plasma Aβ1-40” value is ~50% and 48%. The “reduction of plasma Aβ1-40” value in series [3] (30 and 100 mg/kg IP, 3 doses every 4 days, 4 hours after last dose) is ~50% and 50-53%. Besides, the “concentration in CSF” value in series [4] is 0.2-0.3 μg/ml and ~2 nM. Besides, the “peak serum antibody concentration” value in series [4] (15 minutes post administration) is ~800 µg/mL. The serum antibody concentration in series [4] (7 days post-dose) was 232 µg/mL.

Values taken from patent US9879094B2, “Nucleic acid molecules encoding for BACE1 antibodies” (Genentech, Inc., priority 2010, dated 2018).
